Results reported in PMC9045721, “Cryo-EM structure of the EBV ribonucleotide reductase BORF2 and mechanism of APOBEC3B inhibition” (Science Advances, 2022).
Substitutions are numbered along the chain they refer to. In names and notes the source's numbering stands.

B1: MBP-BORF2 (1 to 826) (enzyme)
chain: MATTSHVEHELLSKLIDELKVKANSDPEADVLAGRLLHRLKAESVTHTVAEYLEVFSDKFYDEEFFQMHRDELETRVSAFAQSPAYERIVSSGYLSALRYYDTYLYVGRSGKQESVQHFYMRLAGFCASTTCLYAGLRAALQRARPEIESDMEVFDYYFEHLTSQTVCCSTPFMRFAGVENSTLASCILTTPDLSSEWDVTQALYRHLGRYLFQRAGVGVGVTGAGQDGKHISLLMRMINSHVEYHNYGCKRPVSVAAYMEPWHSQIFKFLETKLPENHERCPGIFTGLFVPELFFKLFRDTPWSDWYLFDPKDAGDLERLYGEEFEREYYRLVTAGKFCGRVSIKSLMFSIVNCAVKAGSPFILLKEACNAHFWRDLQGEAMNAANLCAEVLQPSRKSVATCNLANICLPRCLVNAPLAVRAQRADTQGDELLLALPRLSVTLPGEGAVGDGFSLARLRDATQCATFVVACSILQGSPTYDSRDMASMGLGVQGLADVFADLGWQYTDPPSRSLNKEIFEHMYFTALCTSSLIGLHTRKIFPGFKQSKYAGGWFHWHDWAGTDLSIPREIWSRLSERIVRDGLFNSQFIALMPTSGCAQVTGCSDAFYPFYANASTKVTNKEEALRPNRSFWRHVRLDDREALNLVGGRVSCLPEALRQRYLRFQTAFDYNQEDLIQMSRDRAPFVDQSQSHSLFLREEDAARASTLANLLVRSYELGLKTIMYYCRIEKAADLGVMECKASAALSVPREEQNERSPAEQMPPRPMEPAQVAGPVDIMSKGPGEGPGGWCVPGGLEVCYKYRQLFSEDDLLETDGFTERACESCQ
notes: Epstein-Barr virus ribonucleotide reductase large subunit BORF2, residues 1 to 826, codon-optimized gene; wild-type constructs match GenBank V01555.2; Dimer in the cryo-EM structure; The MBP tag was not detected in the maps; also called EBV RNR large subunit; wild-type BORF2; source: 293T, transfected; purified (amylose resin, SEC); not shown: MBP, N-terminal, kept
B2: MBP-BORF2 R39E/D26R (enzyme, Epstein-Barr virus (EBV), UniProt P03190 1-826, looked up)
chain: B1 chain with D26R, R39E
notes: Epstein-Barr virus BORF2, residues 1 to 826, codon-optimized gene; GenBank V01555.2; also called D26R/R39E BORF2; double mutant R39E/D26R; source: 293T, transfected; purified with amylose resin (SEC profiles); in lysate (co-IP); not shown: MBP, N-terminal, kept
B3: MBP-BORF2 D26R (enzyme, Epstein-Barr virus (EBV), UniProt P03190 1-826, looked up)
chain: B1 chain with D26R
notes: Epstein-Barr virus BORF2, residues 1 to 826, codon-optimized gene; GenBank V01555.2; source: 293T, transfected; purified with amylose resin (SEC profiles); in lysate (co-IP); not shown: MBP, N-terminal, kept
B4: A3Bctd (193-382)-mycHis (domain or fragment)
chain: not shown
notes: APOBEC3B (A3B) C-terminal catalytic domain (ctd), residues 193-382; wild-type constructs match GenBank NM_004900; also called A3Bctd-mycHis; A3B-mycHis; not shown: myc, C-terminal, kept; His, C-terminal, kept

What was measured:
A3Bctd (193-382)-mycHis = target: B4; experiment: SEC; BORF2 and A3Bctd purified individually with affinity resins, mixed with excess A3Bctd, run on SEC; SDS-PAGE of the fractions of the major peak; 20 mM tris-HCl (pH 8), 150 mM NaCl; settings: both partners purified
A3Bctd (193-382)-mycHis, sequence (Q9UH17 193-382): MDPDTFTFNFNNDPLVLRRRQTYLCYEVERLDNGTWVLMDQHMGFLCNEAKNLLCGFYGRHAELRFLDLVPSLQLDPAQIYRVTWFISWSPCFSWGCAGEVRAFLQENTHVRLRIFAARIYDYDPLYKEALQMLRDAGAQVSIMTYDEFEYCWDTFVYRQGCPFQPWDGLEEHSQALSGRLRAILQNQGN

[1] = target: the molecule itself; experiment: cryo-EM structure; MBP-BORF2 (after amylose resin) mixed with excess purified A3Bctd-mycHis, complex isolated by SEC in 20 mM tris-HCl (pH 8), 150 mM NaCl, 1 mM TCEP; dimeric classes, C2, focused refinement
[2] = target: the molecule itself; experiment: SEC; MBP-BORF2 and mutant derivatives purified with amylose resin; approximately 150 ug of each on S200 Increase in 10 mM tris-HCl (pH 8), 150 mM NaCl; self-association (dimer to monomers)
MBP-BORF2 (1 to 826) = target: B1; experiment: BLI; Octet RED; A3-mycHis proteins loaded on Ni-NTA biosensors (12.5 ug/ml A3Bctd and A3A, 8 ug/ml A3G); MBP-BORF2 200 to 6.25 nM; 20 mM tris-HCl (pH 8), 300 mM NaCl; 30°C; association 1200 s, dissociation 1800 s; 1:2 binding model; settings: both partners purified

In the case of B1, the “stoichiometry N” value (A3Bctd (193-382)-mycHis) is reported as 1 and the “stoichiometry N” value [1] is reported as 2.

B2: binds [2].

B3: binds [2].

B4 gave a Kd (MBP-BORF2 (1 to 826)) of roughly 1 nM.
